Here are results for four variants from IntAct's records for PubMed 22070932.

B1: DAZ-associated protein 2 (Homo sapiens), Q15038 (parent)
chain: MNSKGQYPTQPTYPVQPPGNPVYPQTLHLPQAPPYTDAPPAYSELYRPSFVHPGAATVPTMSAAFPGASLYLPMAQSVAVGPLGSTIPMAYYPVGPIYPPGSTVLVEGGYDAGARFGAGATAGNIPPPPPGCPPNAAQLAVMQGANVLVTQRKGNFFMGGSDGGYTIW
partner: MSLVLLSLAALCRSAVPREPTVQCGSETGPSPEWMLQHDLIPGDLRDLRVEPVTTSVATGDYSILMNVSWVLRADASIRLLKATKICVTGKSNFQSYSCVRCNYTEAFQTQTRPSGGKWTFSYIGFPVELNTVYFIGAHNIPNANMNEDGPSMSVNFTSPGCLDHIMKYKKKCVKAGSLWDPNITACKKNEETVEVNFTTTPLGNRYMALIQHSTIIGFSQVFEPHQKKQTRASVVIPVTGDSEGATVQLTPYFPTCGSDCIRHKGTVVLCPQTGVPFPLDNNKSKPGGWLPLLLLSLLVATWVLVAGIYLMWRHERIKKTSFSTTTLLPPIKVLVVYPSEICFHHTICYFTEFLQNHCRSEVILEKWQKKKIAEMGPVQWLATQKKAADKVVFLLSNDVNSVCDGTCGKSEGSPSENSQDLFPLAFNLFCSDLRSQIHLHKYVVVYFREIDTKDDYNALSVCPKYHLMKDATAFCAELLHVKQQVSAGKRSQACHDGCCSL
B2: DAZ-associated protein 2 (Homo sapiens), Q15038 (parent)
chain: B1 chain

The variants in one experiment derive from B1. The following applies: with IL17RB.
For Y165A, the “effect of a mutation on the interaction” value was “decreasing interaction strength”.

Y42A: the “effect of a mutation on the interaction” value is given as “decreasing interaction strength”.

As to Y42A;Y165A, the “effect of a mutation on the interaction” value is given as “disrupting interaction strength”.

The variants in the next experiment derive from B2. The following applies: with smuf2_human SMURF2, Q9HAU4.
Chain of smuf2_human SMURF2, Q9HAU4 (Q9HAU4 whole entry): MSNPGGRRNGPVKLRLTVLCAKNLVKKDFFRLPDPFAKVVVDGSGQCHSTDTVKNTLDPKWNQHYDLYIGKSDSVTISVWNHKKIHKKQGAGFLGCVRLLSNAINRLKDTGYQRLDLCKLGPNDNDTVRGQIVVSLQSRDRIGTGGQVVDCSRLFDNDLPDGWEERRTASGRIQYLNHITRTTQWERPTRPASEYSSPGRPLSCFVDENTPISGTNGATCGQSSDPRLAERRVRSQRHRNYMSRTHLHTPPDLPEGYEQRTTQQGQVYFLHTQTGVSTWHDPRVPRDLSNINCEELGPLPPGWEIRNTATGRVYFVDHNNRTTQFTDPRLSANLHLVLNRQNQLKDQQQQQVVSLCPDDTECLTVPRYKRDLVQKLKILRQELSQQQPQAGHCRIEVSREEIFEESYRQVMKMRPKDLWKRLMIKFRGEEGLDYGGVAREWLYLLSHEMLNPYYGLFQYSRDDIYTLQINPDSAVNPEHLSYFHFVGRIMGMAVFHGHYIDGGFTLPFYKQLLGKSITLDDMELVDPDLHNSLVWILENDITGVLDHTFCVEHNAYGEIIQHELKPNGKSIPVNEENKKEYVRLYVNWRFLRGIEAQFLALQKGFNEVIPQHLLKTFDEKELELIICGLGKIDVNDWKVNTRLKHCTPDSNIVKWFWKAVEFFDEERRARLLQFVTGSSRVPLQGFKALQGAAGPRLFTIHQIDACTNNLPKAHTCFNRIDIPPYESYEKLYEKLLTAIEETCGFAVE
Regarding Y42A, the “effect of a mutation on the interaction” value was “disrupting interaction strength”.
